Data set [1] concerns the target T1, BmILF (Bombyx mori, UniProt A0A1U9WZ16 1-382).
T1 sequence: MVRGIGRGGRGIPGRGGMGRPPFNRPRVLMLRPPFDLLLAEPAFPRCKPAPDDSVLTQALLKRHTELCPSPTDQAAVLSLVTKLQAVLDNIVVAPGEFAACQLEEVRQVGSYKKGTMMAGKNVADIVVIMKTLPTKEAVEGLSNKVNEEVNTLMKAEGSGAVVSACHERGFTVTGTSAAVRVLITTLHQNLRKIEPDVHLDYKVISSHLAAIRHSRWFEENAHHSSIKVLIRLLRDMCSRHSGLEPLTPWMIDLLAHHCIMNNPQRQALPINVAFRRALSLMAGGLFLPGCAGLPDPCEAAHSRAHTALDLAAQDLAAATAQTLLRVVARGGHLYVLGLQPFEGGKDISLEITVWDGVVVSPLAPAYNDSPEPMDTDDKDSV
Put plainly: EMSA; Hill fit; EMSA: 20 ul, 2.5% glycerol, 0.05% NP-40, 5 mM MgCl2, 4 mM EDTA, RT 20 min; probes folded in 50 mM Tris-TAE pH 4.0 (also 6.0, 8.0). MST: NanoTemper buffer with 100 mM Tris pH 6.0, 2.93-6000 nM BmILF, 25 C. To be noted: protein: recombinant; label: 5' biotin; i-motif (folded by slow cooling at acidic pH). For orientation: Mobility shift assays separate free from complexed probe on a gel.

The target in data set [2] is T1, BmILF. Put plainly: EMSA; pH 4.0; EMSA: 20 ul, 2.5% glycerol, 0.05% NP-40, 5 mM MgCl2, 4 mM EDTA, RT 20 min; probes folded in 50 mM Tris-TAE pH 4.0 (also 6.0, 8.0). MST: NanoTemper buffer with 100 mM Tris pH 6.0, 2.93-6000 nM BmILF, 25 C. The settings on record: protein: recombinant; label: 5' biotin; no i-motif by CD.
Data set [3] addresses T1, BmILF. The experiment in a line: MST; pH 6.0, 50 nM probe; EMSA: 20 ul, 2.5% glycerol, 0.05% NP-40, 5 mM MgCl2, 4 mM EDTA, RT 20 min; probes folded in 50 mM Tris-TAE pH 4.0 (also 6.0, 8.0). MST: NanoTemper buffer with 100 mM Tris pH 6.0, 2.93-6000 nM BmILF, 25 C. The settings on record: protein: recombinant; label: Cy5; i-motif (folded at pH 4.0).
Data set [4] addresses T1, BmILF. The experiment in a line: EMSA; EMSA: 20 ul, 2.5% glycerol, 0.05% NP-40, 5 mM MgCl2, 4 mM EDTA, RT 20 min; probes folded in 50 mM Tris-TAE pH 4.0 (also 6.0, 8.0). MST: NanoTemper buffer with 100 mM Tris pH 6.0, 2.93-6000 nM BmILF, 25 C. The settings on record: protein: recombinant, label: 5' biotin.

This note sets out measurements from paper PMC7059380, “In vivo visualization of the i-motif DNA secondary structure in the Bombyx mori testis”.

CCCCGCGCCCCCCGCGTCCCCCGCACCCCC (structured_DNA) [BGIBMGA003213-WT i-motif (EMSA)]: the Kd in data set [1] is 78 nM. In the case of CATTGCGATATCAGCGTTATCAGTATCAAT (ssDNA) [BGIBMGA003213-Mut], the binding result in data set [2] is “no binding”.

Take CCCCGCGCCCCCCGCGTCCCCCGCACCCCC (structured_DNA) [BGIBMGA003213-WT i-motif (MST)]: in data set [3], the Kd amounted to 367 nM. As for TTGTTGTACTGCTACTCGGATCACTCGAGCATCGTACTGG (ssDNA) [BmPOUM2-Mut], the binding result in data set [2] is on record as “no binding”.

CAGTGGCGGCCATCCGTTTAATATTACCGGATGGCCGCGCGAT (structured_DNA) [Hairpin]: the binding result in data set [4] (hairpin) is “no binding”. In the case of GGGGGTGCGGGGGACGCGGGGGGCGCGGGG (structured_DNA) [BGIBMGA003213-G4], the binding result in data set [4] (G4) is on record as “no binding”. Consider TTGTTGCCCCGCCCCTCGGCCCCCTCGCGCCCCGCACTGG (structured_DNA) [BmPOUM2-WT i-motif (EMSA)], for which the Kd in data set [1] was found to be 119 nM. With TTGTTGCCCCGCCCCTCGGCCCCCTCGCGCCCCGCACTGG (structured_DNA) [BmPOUM2-WT i-motif (MST)], the Kd in data set [3] was 430 nM. As for CCAGTGCGGGGCGCGAGGGGGCCGAGGGGCGGGGCAACAA (structured_DNA) [BmPOUM2-G4], the binding result in data set [4] (G4) is given as “no binding”.

As usually defined, the Kd is the free concentration of one partner at which half of the binding sites on the other are occupied at equilibrium, for simple one-to-one binding.
